These sequences were tested on Bacillus subtilis (assay: cleaved RNA product abundance (RNA/gDNA barcode ratio) relative to median wild-type variant (ratio to wild type); higher = more accumulation of the downstream cleavage product). Details: experiment (reporter, strain, medium): exp 8a: truncated aprE reporter, strain BJT201 with 2% xylose (RNase J1 expressed); cleavage site: glnRA (positions -5 to +31 mutated).
How it was run: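 Oligos with a 9% error rate were used to build barcoded, mutagenized RNase Y cleavage-site windows within truncated aprE or tetM reporter mRNAs, which were integrated into the B. subtilis chromosome. Cultures were grown in LB at 37°C between OD600 0.0003 and 0.3. Cleaved RNA was gel-selected, reverse transcribed and barcode-sequenced, as were genomic DNA barcodes, and UMIs were collapsed. Cleaved product abundance is the scaled RNA:gDNA barcode ratio, with the median construct carrying the unmutated site as reference.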

Sequence | cleaved RNA product abundance
CGACATGTCCCGCTTCTTTCATTAATCCGTTAGCGACTGTTTTGCTATATACATTGACCTTTTAAGAGGAGGAAT | 0.274
CGACATGTCCCGCTTCTTTCATTAATCCGTTAGCGACTGTTTTGCTATATACATTTAACTTTTAAGAGGAGGAAT | 0.418
CGACATGTCCCGCTTCTTTCATTAATCCGTTAGCGACTGTTTTGCTATATACATTTACCTTTTAAGAGGAGGAAT | 0.385
CGACATGTCCCGCTTCTTTCATTAATCCGTTAGCTACTGTTATGCTATATACATTTACCTTTTAAGAGGAGGAAT | 0.786
CGACATGTCCCGCTTCTTTCATTAATCCGTTAGCTACTGTTTTGCAATATACATTTACCTTTTAAGAGGAGGAAT | 0.187
CGACATGTCCCGCTTCTTTCATTAATCCGTTAGCTACTGTTTTGCTATATACATTTAACTTTTAAGAGGAGGAAT | 0.621
CGACATGTCCCGCTTCTTTCATTAATCCGTTAGCTACTGTTTTGCTATATACATTTACCTTTTAAGAGGAGGAAT | 0.56
CGACATGTCCCGCTTCTTTCATTAATCCGTTAGCTACTGTTTTGCTATATACATTTACGTTTTAAGAGGAGGAAT | 0.818
CGACATGTCCCGCTTCTTTCATTAATCCGTTAGCTACTGTTTTGCTATATACATTTATCTTTTAAGAGGAGGAAT | 0.798
CGACATGTCCCGCTTCTTTCATTAATCCGTTAGCTACTGTTTTGCTATATATATTTACCTTTTAAGAGGAGGAAT | 0.617
CGACATGTCCCGCTTCTTTCATTAATCCGTTAGCTACTGTTTTGCTATATGCATTTACCTTTTAAGAGGAGGAAT | 0.368
CGACATGTCCCGCTTCTTTCATTAATCCGTTAGCTACTGTTTTGCTATATTCATTTACATTTTAAGAGGAGGAAT | 0.64
CGACATGTCCCGCTTCTTTCATTAATCCGTTAGCTATTGTTTTGCTATATACATTTACCTTTTAAGAGGAGGAAT | 0.432
CGACATGTCCCGCTTCTTTCATTAATCCGTTAGCTGCTGTTTTGCTATATACATTTACCTTTTAAGAGGAGGAAT | 0.658
CGACATGTCCCGCTTCTTTCATTAATCCGTTAGGAAATGTTTTGCTATATACATTTACCTTTTAAGAGGAGGAAT | 0.361
CGACATGTCCCGCTTCTTTCATTAATCCGTTAGGAACAGTTTTGCTATATACATTTACCTTTTAAGAGGAGGAAT | 0.434
CGACATGTCCCGCTTCTTTCATTAATCCGTTAGGAACTATTTTGCTATATACATTTACCTTTTAAGAGGAGGAAT | 0.437
CGACATGTCCCGCTTCTTTCATTAATCCGTTAGGAACTGATTTGCTATATACATTTACCTTTTAAGAGGAGGAAT | 0.415
CGACATGTCCCGCTTCTTTCATTAATCCGTTAGGAACTGTCTTGCTATATACATTTACCTTTTAAGAGGAGGAAT | 0.138
CGACATGTCCCGCTTCTTTCATTAATCCGTTAGGAACTGTTTAGCTATATACATTTACCTTTTAAGAGGAGGAAT | 0.327
CGACATGTCCCGCTTCTTTCATTAATCCGTTAGGAACTGTTTTGCAATATACATTTACCTTTTAAGAGGAGGAAT | 0.342

Sequence | cleaved RNA product abundance
CGACATGTCCCGCTTCTTTCATTAATCCGTTAGGAACTGTTTTGCGATATACATTTACCTTTTAAGAGGAGGAAT | 0.312
CGACATGTCCCGCTTCTTTCATTAATCCGTTAGGAACTGTTTTGCTATAAACATTTACCTTTTAAGAGGAGGAAT | 0.289
CGACATGTCCCGCTTCTTTCATTAATCCGTTAGGAACTGTTTTGCTATACACATTTACCTTTTAAGAGGAGGAAT | 0.245
CGACATGTCCCGCTTCTTTCATTAATCCGTTAGGAACTGTTTTGCTATATACATTTACCTTTTAAGAGGAGGAAT | 0.331
CGACATGTCCCGCTTCTTTCATTAATCCGTTAGGAACTGTTTTGCTATATACATTTACTTTTTAAGAGGAGGAAT | 0.247
CGACATGTCCCGCTTCTTTCATTAATCCGTTAGGAACTGTTTTGCTATATACATTTGCCTTTTAAGAGGAGGAAT | 0.376
CGACATGTCCCGCTTCTTTCATTAATCCGTTAGGAACTGTTTTGCTATATAGATTTACCTTTTAAGAGGAGGAAT | 0.191
CGACATGTCCCGCTTCTTTCATTAATCCGTTAGGAACTGTTTTGCTATATATATTTACCTTTTAAGAGGAGGAAT | 0.367
CGACATGTCCCGCTTCTTTCATTAATCCGTTAGGAACTGTTTTTCTATATACATTTACCTTTTAAGAGGAGGAAT | 0.453
CGACATGTCCCGCTTCTTTCATTAATCCGTTAGGAACTTTTTTGCTATATACATTTACCTTTTAAGAGGAGGAAT | 0.409
CGACATGTCCCGCTTCTTTCATTAATCCGTTAGTAAATGTTTTGCTATATACATTTACCTTTTAAGAGGAGGAAT | 0.205
CGACATGTCCCGCTTCTTTCATTAATCCGTTAGTAACTGTCTTGCTATATACATTTACCTTTTAAGAGGAGGAAT | 0.231
CGACATGTCCCGCTTCTTTCATTAATCCGTTAGTAACTGTTGTGCTATATACATTTACCTTTTAAGAGGAGGAAT | 0.358
CGACATGTCCCGCTTCTTTCATTAATCCGTTAGTAACTGTTTAGCTATATACATTTACCTTTTAAGAGGAGGAAT | 0.463
CGACATGTCCCGCTTCTTTCATTAATCCGTTAGTAACTGTTTTACTATATACATTTACCTTTTAAGAGGAGGAAT | 1.04
CGACATGTCCCGCTTCTTTCATTAATCCGTTAGTAACTGTTTTCCTATATACATTTACCTTTTAAGAGGAGGAAT | 0.44
CGACATGTCCCGCTTCTTTCATTAATCCGTTAGTAACTGTTTTGATATATACATTTACCTTTTAAGAGGAGGAAT | 0.66
CGACATGTCCCGCTTCTTTCATTAATCCGTTAGTAACTGTTTTGCAATATACATTTACCTTTTAAGAGGAGGAAT | 0.316
CGACATGTCCCGCTTCTTTCATTAATCCGTTAGTAACTGTTTTGCGATATACATTTACCTTTTAAGAGGAGGAAT | 0.29
CGACATGTCCCGCTTCTTTCATTAATCCGTTAGTAACTGTTTTGCTAAATACATTTACCTTTTAAGAGGAGGAAT | 0.496
CGACATGTCCCGCTTCTTTCATTAATCCGTTAGTAACTGTTTTGCTACATACATTTACCTTTTAAGAGGAGGAAT | 0.318

Sequence | cleaved RNA product abundance
CGACATGTCCCGCTTCTTTCATTAATCCGTTAGTAACTGTTTTGCTATAAACATTTACCTTTTAAGAGGAGGAAT | 0.389
CGACATGTCCCGCTTCTTTCATTAATCCGTTAGTAACTGTTTTGCTATAGACATTTACCTTTTAAGAGGAGGAAT | 0.536
CGACATGTCCCGCTTCTTTCATTAATCCGTTAGTAACTGTTTTGCTATATACACTTACCTTTTAAGAGGAGGAAT | 0.527
CGACATGTCCCGCTTCTTTCATTAATCCGTTAGTAACTGTTTTGCTATATACATATACCTTTTAAGAGGAGGAAT | 0.305
CGACATGTCCCGCTTCTTTCATTAATCCGTTAGTAACTGTTTTGCTATATACATTTACATTTTAAGAGGAGGAAT | 0.433
CGACATGTCCCGCTTCTTTCATTAATCCGTTAGTAACTGTTTTGCTATATACATTTACCATTTAAGAGGAGGAAT | 0.33
CGACATGTCCCGCTTCTTTCATTAATCCGTTAGTAACTGTTTTGCTATATACATTTACCTTTTAAGAGGAGGAAT | 0.379
CGACATGTCCCGCTTCTTTCATTAATCCGTTAGTAACTGTTTTGCTATATACATTTACGTTTTAAGAGGAGGAAT | 0.581
CGACATGTCCCGCTTCTTTCATTAATCCGTTAGTAACTGTTTTGCTATATACATTTACTTTTTAAGAGGAGGAAT | 0.36
CGACATGTCCCGCTTCTTTCATTAATCCGTTAGTAACTGTTTTTCTATATACATTTACCTTTTAAGAGGAGGAAT | 0.688
CGACATGTCCCGCTTCTTTCATTAATCCGTTAGTAACTTTTTTGCTATATACATTTACCTTTTAAGAGGAGGAAT | 0.636
CGACATGTCCCGCTTCTTTCATTAATCCGTTAGTAAGTGTTTTGCTATATACATTTACCTTTTAAGAGGAGGAAT | 0.265
CGACATGTCCCGCTTCTTTCATTAATCCGTTAGTAATTGTTTTGCTATATACATTTACCTTTTAAGAGGAGGAAT | 0.362
CGACATGTCCCGCTTCTTTCATTAATCCGTTAGTATCTGTTTTACTATATACATTTACCTTTTAAGAGGAGGAAT | 0.917
CGACATGTCCCGCTTCTTTCATTAATCCGTTAGTATCTGTTTTGCTATATACATTTACCTTTTAAGAGGAGGAAT | 0.422
CGACATGTCCCGCTTCTTTCATTAATCCGTTAGTTACTGTTTTGCTATATACATTTACCTTTTAAGAGGAGGAAT | 0.365
CGACATGTCCCGCTTCTTTCATTAATCCGTTATAAACTGTTTTGCTATATACATTTACCTTTTAAGAGGAGGAAT | 0.276
CGACATGTCCCGCTTCTTTCATTAATCCGTTATCAAATGTTATGTTATATACATTTACCTTTTAAGAGGAGGAAT | 0.413
CGACATGTCCCGCTTCTTTCATTAATCCGTTATCAAATGTTTTGCTATATACATTTACCTTTTAAGAGGAGGAAT | 0.283

— the supplement of paper PMC11780869
